Key:
Assay in all cases: ITC; SCE at 60 µM in the cell (300 µl loaded), SUMO1-Flag-His at 600 µM in the syringe; 20 injections; 25°C; 20 mM Tris, 5 mM MgCl2, pH 7.4; MicroCal ITC 200
Details in all cases: both partners purified
SCE K15R = biological target: T1, SCE K15R (Arabidopsis, UniProt Q42551 1-160, K15R)
T1 construct: SUMO-conjugating enzyme SCE1, Arabidopsis thaliana, AT3G57870, with K15R; also called SCE1 K15R; source: MonoS ion exchange for ITC
T1 sequence (looked up): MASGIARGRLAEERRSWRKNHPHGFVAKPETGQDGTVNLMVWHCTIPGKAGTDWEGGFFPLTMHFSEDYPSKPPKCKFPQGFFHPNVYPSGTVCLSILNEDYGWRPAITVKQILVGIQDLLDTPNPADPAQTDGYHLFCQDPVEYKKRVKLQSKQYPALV

[1] = biological target: T2, Arabidopsis SUMO-conjugating enzyme SCE1, wild type (Arabidopsis, UniProt Q42551 1-160)
T2 construct: SUMO-conjugating enzyme SCE1, Arabidopsis thaliana, AT3G57870; also called SCE WT; WT SCE; source: MonoS ion exchange for ITC
T2 sequence (looked up): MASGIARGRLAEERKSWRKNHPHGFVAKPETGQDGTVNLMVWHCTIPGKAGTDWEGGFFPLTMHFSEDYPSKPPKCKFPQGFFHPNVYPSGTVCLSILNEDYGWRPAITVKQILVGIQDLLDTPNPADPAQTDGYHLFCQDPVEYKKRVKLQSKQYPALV

SCE K28R = biological target: T3, SCE K28R (Arabidopsis, UniProt Q42551 1-160, K28R)
T3 construct: SUMO-conjugating enzyme SCE1, Arabidopsis thaliana, AT3G57870, with K28R; source: MonoS ion exchange for ITC
T3 sequence (looked up): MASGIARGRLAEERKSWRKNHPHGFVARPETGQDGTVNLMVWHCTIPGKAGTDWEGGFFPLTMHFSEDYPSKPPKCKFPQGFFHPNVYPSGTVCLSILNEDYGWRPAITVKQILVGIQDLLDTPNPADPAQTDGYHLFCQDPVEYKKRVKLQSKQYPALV

B1: SUMO1-Flag-His (natural protein, Arabidopsis, UniProt P55852 1-93, looked up)
chain: MSANQEEDKKPGDGGAHINLKVKGQDGNEVFFRIKRSTQLKKLMNAYCDRQSVDMNSIAFLFDGRRLRAEQTPDELDMEDGDEIDAMLHQTGG
notes: SUMO1 (small ubiquitin-related modifier 1), Arabidopsis; The SUMO preparations are conjugated in vitro without a protease, so the processed form ending in Gly-Gly is surmised; also called N-terminally tagged SUMO (Flag-His); source: purified (Ni2+ resin, then MonoQ ion exchange for ITC); not shown: Flag, N-terminal, kept; His, N-terminal, kept
Binder B1 has a Kd (SCE K15R) of 33 ± 17 µM, a Kd [1] of 710 ± 230 µM and a Kd (SCE K28R) of 270 ± 330 µM.

Source: article PMC5748838, “SUMO chain formation relies on the amino-terminal region of SUMO-conjugating enzyme and has dedicated substrates in plants” (Biochemical Journal, 2017)
